Experimental data from patent US20240043560A1 (Regeneron, published 2024).

How the values were obtained:
[1] = target: T1, 6h.hPSMA (recombinant Human PSMA/FOLH1 Protein, R&D, Catalog #4234-ZN) (human, UniProt Q04609 44-750); assay: SPR, Biacore, captured antibody, hPSMA.6H (block headed 10 nM), 37°C
T1 construct: Bought protein; also called hPSMA with an N-terminal polyhistidine tag; hPSMA.6H; not shown: N-terminal polyhistidine tag (6h)

[2] = target: T1, 6h.hPSMA (recombinant Human PSMA/FOLH1 …); assay: SPR, Biacore, captured antibody, hPSMA.6H (block headed 20 nM), 37°C; 20 nM hPSMA.6H block, 37 C
[3] = target: full-length human CD28 (hCD28, amino acids M1 to S220, accession #P10747) on engineered reporter T-cells (human, UniProt P10747 19-220); assay: cell-based or functional assay
[4] = target: T1, 6h.hPSMA (recombinant Human PSMA/FOLH1 …); assay: SPR, Biacore T-200, antibody captured by anti-human Fc, 6h.hPSMA injected, 25°C
Protocol: (§1) The different concentrations of 6h.hPSMA were injected over the monoclonal antibody captured surface at a flow rate of 50 μL/minute. Association of 6h.hPSMA to the captured monoclonal antibody was monitored for 3 minutes and the dissociation of 6h.hPSMA in HBS-P++ running buffer was monitored for 10 minutes. Kinetic association (kₐ) and dissociation (kd) rate constants were determined by fitting the real-time sensorgrams to a 1:1 binding model using Scrubber 2.0c curve fitting software (BioLogic Software). Binding dissociation equilibrium constants (KD) and dissociative half-lives (t1/2) were calculated from the kinetic rate constants as: KD(M)=kd/kₐ, and t1/2 (min)=0.693/kd/60

hCD28.mmh [5] = target: T2, hCD28.mmh (human, UniProt P10747 19-152); assay: SPR, Biacore T-200, antibody captured by anti-human Fc, hCD28.mmh injected, 25°C
T2 construct: also called hCD28.6H; not shown: neither explained nor printed
Protocol: as §1, with “Different concentrations” for “The different concentrations”, “of hCD28.mmh” for “of 6h.hPSMA”, “for 5” for “for 3”, “fitting software.” for “fitting software (BioLogic Software).”

[6] = target: T3, CD28 on the surface of Human T cells (human, UniProt P10747 19-220); assay: flow cytometry, human CD8+ T cells; CD8+ T cells
T3 construct: whole, on cells; also called CD28 on T cells; all T cells

[7] = target: T1, 6h.hPSMA (recombinant Human PSMA/FOLH1 …); assay: SPR, Biacore, captured antibody, hPSMA.6H (block headed 20 nM), 37°C
hCD28.mmh [8] = target: T2, hCD28.mmh; assay: SPR, Biacore, captured antibody, soluble hCD28 injected, 37°C
[9] = target: T4, PSMA on the surface of cell lines expressing PSMA (C4-2, 22RV1) (human, UniProt Q04609 1-750); assay: flow cytometry, C4-2 cells expressing PSMA
T4 construct: whole, on cells; also called C4-2 cells; 22RV1 cells
T4 sequence (Q04609 whole entry): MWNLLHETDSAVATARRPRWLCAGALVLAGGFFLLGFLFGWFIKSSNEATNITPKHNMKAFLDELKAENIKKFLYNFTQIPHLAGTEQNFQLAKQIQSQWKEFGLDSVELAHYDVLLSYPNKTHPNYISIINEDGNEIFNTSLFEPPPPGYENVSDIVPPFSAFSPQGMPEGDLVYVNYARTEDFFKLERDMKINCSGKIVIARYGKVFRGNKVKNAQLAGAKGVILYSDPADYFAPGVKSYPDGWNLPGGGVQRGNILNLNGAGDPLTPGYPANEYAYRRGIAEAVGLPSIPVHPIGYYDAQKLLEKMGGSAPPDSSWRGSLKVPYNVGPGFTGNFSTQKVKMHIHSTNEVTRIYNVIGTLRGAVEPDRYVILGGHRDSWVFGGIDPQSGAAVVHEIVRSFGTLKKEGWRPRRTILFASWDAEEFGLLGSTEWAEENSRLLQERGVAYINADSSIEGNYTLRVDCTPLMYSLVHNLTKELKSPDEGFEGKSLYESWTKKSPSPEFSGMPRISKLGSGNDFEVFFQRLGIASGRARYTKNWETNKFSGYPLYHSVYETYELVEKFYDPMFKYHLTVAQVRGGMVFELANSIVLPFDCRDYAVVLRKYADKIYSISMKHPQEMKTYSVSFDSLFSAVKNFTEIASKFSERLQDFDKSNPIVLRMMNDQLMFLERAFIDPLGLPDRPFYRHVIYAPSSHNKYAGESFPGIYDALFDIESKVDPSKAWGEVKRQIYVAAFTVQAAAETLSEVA

[10] = target: T4, PSMA on the surface of cell lines …; assay: flow cytometry, 22RV1 cells expressing PSMA
[11] = target: T3, CD28 on the surface of Human T cells; assay: flow cytometry, human T cells (all T cells); all T cells
[12] = target: T3, CD28 on the surface of Human T cells; assay: flow cytometry, human CD4+ T cells; CD4+ T cells

T1 sequence (Q04609 44-750 limits assumed): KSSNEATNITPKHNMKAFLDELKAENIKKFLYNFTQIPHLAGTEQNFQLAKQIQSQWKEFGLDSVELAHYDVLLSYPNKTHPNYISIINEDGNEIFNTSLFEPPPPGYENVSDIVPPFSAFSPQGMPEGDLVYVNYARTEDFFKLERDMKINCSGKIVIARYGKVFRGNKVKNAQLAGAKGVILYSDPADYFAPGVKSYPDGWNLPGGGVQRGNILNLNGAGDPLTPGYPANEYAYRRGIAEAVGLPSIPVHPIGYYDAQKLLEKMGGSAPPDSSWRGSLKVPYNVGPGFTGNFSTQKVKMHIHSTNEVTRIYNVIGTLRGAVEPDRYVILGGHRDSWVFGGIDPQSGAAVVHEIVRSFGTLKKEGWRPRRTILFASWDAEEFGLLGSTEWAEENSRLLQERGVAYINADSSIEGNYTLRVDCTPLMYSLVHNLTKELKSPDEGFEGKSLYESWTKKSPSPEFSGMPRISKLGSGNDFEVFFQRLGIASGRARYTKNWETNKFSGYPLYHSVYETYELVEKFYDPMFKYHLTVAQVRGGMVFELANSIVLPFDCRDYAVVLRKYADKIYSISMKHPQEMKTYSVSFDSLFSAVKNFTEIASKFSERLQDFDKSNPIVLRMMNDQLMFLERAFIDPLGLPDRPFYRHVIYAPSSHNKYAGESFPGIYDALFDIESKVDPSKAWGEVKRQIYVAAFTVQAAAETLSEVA

EC50 [M], luciferase activity in engineered reporter T-cells with HEK293/hCD20/hPSMA, presence of TCR stimulation [3] [M]	Fold induction, luciferase activity in engineered reporter T-cells with HEK293/hCD20, absence of TCR stimulation [3] [fold]	Fold induction, luciferase activity in engineered reporter T-cells with HEK293/hCD20, presence of TCR stimulation [3] [fold]	Fold induction, luciferase activity in engineered reporter T-cells with HEK293/hCD20/hPSMA, absence of TCR stimulation [3] [fold]	Fold induction, luciferase activity in engineered reporter T-cells with HEK293/hCD20/hPSMA, presence of TCR stimulation [3] [fold]	Kd [4] [nM]	T½ [4] [h]	koff [4] [s⁻¹]	kon [4] [M⁻¹ s⁻¹]	Kd (hCD28.mmh [5]) [nM]	T½ (hCD28.mmh [5]) [min]	koff (hCD28.mmh [5]) [s⁻¹]	kon (hCD28.mmh [5]) [M⁻¹ s⁻¹]	EC50 [6] [nM]	EC50 [9] [nM]	EC50 [10] [nM]	EC50 [12] [nM]	Binder	other results
1.72e-10	0.81	1	1.04	16.1	0.251	3.91	4.92e-05	196000	144	3.5	0.00326	22600	58.9	3.87	3.05	50.9	BSPSMA/CD28-001 (bispecific antibody, human IgG4 S228P, kappa, also called mAb1; REGN5678) heavy 1: QVQLVESGGGVVQPGRSLRLSCAASGFTFSSYGMHWVRQAPGKGLEWVAFMSYDGSNKFYSDSVKGRFTISRDNSRKMLFLQMNNLRAEDTAVYYCARDQYYDFLTDHGVFDYWGQGTLVTVSSASTKGPSVFPLAPCSRSTSESTAALGCLVKDYFPEPVTVSWNSGALTSGVHTFPAVLQSSGLYSLSSVVTVPSSSLGTKTYTCNVDHKPSNTKVDKRVESKYGPPCPPCPAPPVAGPSVFLFPPKPKDTLMISRTPEVTCVVVDVSQEDPEVQFNWYVDGVEVHNAKTKPREEQFNSTYRVVSVLTVLHQDWLNGKEYKCKVSNKGLPSSIEKTISKAKGQPREPQVYTLPPSQEEMTKNQVSLTCLVKGFYPSDIAVEWESNGQPENNYKTTPPVLDSDGSFFLYSRLTVDKSRWQEGNVFSCSVMHEALHNHYTQKSLSLSLGK heavy 2: QVQLQESGPGLVKPSETLSLTCTVSGGSISSYYWSWIRQPPGKGLEWIGYIYYSGITHYNPSLKSRVTISVDTSKIQFSLKLSSVTAADTAVYYCARWGVRRDYYYYGMDVWGQGTTVTVSSASTKGPSVFPLAPCSRSTSESTAALGCLVKDYFPEPVTVSWNSGALTSGVHTFPAVLQSSGLYSLSSVVTVPSSSLGTKTYTCNVDHKPSNTKVDKRVESKYGPPCPPCPAPPVAGPSVFLFPPKPKDTLMISRTPEVTCVVVDVSQEDPEVQFNWYVDGVEVHNAKTKPREEQFNSTYRVVSVLTVLHQDWLNGKEYKCKVSNKGLPSSIEKTISKAKGQPREPQVYTLPPSQEEMTKNQVSLTCLVKGFYPSDIAVEWESNGQPENNYKTTPPVLDSDGSFFLYSRLTVDKSRWQEGNVFSCSVMHEALHNRFTQKSLSLSPGK light: not shown	Kd [1]: 0.396 nM; koff [1]: 7.93e-05 s⁻¹; kon [1]: 200000 M⁻¹ s⁻¹; t½ [1]: 2.43 h; koff [2]: 6.36e-05 s⁻¹; Kd [7]: 0.217 nM; kon [7]: 293000 M⁻¹ s⁻¹; t½ [7]: 3.03 h; Kd (hCD28.mmh [8]): 272 nM; koff (hCD28.mmh [8]): 0.0067 s⁻¹; kon (hCD28.mmh [8]): 24600 M⁻¹ s⁻¹; t½ (hCD28.mmh [8]): 1.7 min; EC50 [11]: 48 nM
4.57e-10	0.87	0.92	0.89	13.6													BSPSMA/CD28-002 (bispecific antibody, human IgG4 S228P, kappa) heavy 1: QVQLVESGGGVVQPGRSLRLSCAASGFTFSSYGMHWVRQAPGKGLEWVAVISYAGNNKYYADSVKGRFTVSRDNSKKTLYLQMNSLRSEDTAVYYCAKDSYYDFLTDPDVLDIWGQGTMVTVSSASTKGPSVFPLAPCSRSTSESTAALGCLVKDYFPEPVTVSWNSGALTSGVHTFPAVLQSSGLYSLSSVVTVPSSSLGTKTYTCNVDHKPSNTKVDKRVESKYGPPCPPCPAPPVAGPSVFLFPPKPKDTLMISRTPEVTCVVVDVSQEDPEVQFNWYVDGVEVHNAKTKPREEQFNSTYRVVSVLTVLHQDWLNGKEYKCKVSNKGLPSSIEKTISKAKGQPREPQVYTLPPSQEEMTKNQVSLTCLVKGFYPSDIAVEWESNGQPENNYKTTPPVLDSDGSFFLYSRLTVDKSRWQEGNVFSCSVMHEALHNHYTQKSLSLSLGK heavy 2: EVQLVESGGGLVQPGGSLRLSCAASGFTFSTYAMTWVRQAPGKGLEWVSFISGSGDNTYYADSVKGRFTISRDNSKNTLYLQMNSLRADDSAIYHCAKDSGYCSSGGCSLYFYYGMDVWGQGTTVTVSSASTKGPSVFPLAPCSRSTSESTAALGCLVKDYFPEPVTVSWNSGALTSGVHTFPAVLQSSGLYSLSSVVTVPSSSLGTKTYTCNVDHKPSNTKVDKRVESKYGPPCPPCPAPPVAGPSVFLFPPKPKDTLMISRTPEVTCVVVDVSQEDPEVQFNWYVDGVEVHNAKTKPREEQFNSTYRVVSVLTVLHQDWLNGKEYKCKVSNKGLPSSIEKTISKAKGQPREPQVYTLPPSQEEMTKNQVSLTCLVKGFYPSDIAVEWESNGQPENNYKTTPPVLDSDGSFFLYSRLTVDKSRWQEGNVFSCSVMHEALHNRFTQKSLSLSPGK light: not shown	
2.78e-10	0.94	0.95	0.98	24.5	0.137	5.01	3.85e-05	280000	207	8.2	0.00141	6790	180	1.5	6.33	167	BSPSMA/CD28-003 (bispecific antibody, human IgG4 S228P, kappa, also called anti-PSMAxCD28 bispecific antibody) heavy 1: QVQLVESGGGVVQPGRSLRLSCAASGFTFSSYGMHWVRQAPGKGLEWVAVISYAGNNKYYADSVKGRFTVSRDNSKKTLYLQMNSLRSEDTAVYYCAKDSYYDFLTDPDVLDIWGQGTMVTVSSASTKGPSVFPLAPCSRSTSESTAALGCLVKDYFPEPVTVSWNSGALTSGVHTFPAVLQSSGLYSLSSVVTVPSSSLGTKTYTCNVDHKPSNTKVDKRVESKYGPPCPPCPAPPVAGPSVFLFPPKPKDTLMISRTPEVTCVVVDVSQEDPEVQFNWYVDGVEVHNAKTKPREEQFNSTYRVVSVLTVLHQDWLNGKEYKCKVSNKGLPSSIEKTISKAKGQPREPQVYTLPPSQEEMTKNQVSLTCLVKGFYPSDIAVEWESNGQPENNYKTTPPVLDSDGSFFLYSRLTVDKSRWQEGNVFSCSVMHEALHNHYTQKSLSLSLGK heavy 2: EVQLVESGGGLVQPGGSLRLSCAASGFTFSRNNMHWVRQAPGKGLEYVSGISSNGGRTYYADSVKGRFTISRDNSKNTLYLQMGGLRAADMAVYFCTRDDELLSFDYWGQGTLVTVSSASTKGPSVFPLAPCSRSTSESTAALGCLVKDYFPEPVTVSWNSGALTSGVHTFPAVLQSSGLYSLSSVVTVPSSSLGTKTYTCNVDHKPSNTKVDKRVESKYGPPCPPCPAPPVAGPSVFLFPPKPKDTLMISRTPEVTCVVVDVSQEDPEVQFNWYVDGVEVHNAKTKPREEQFNSTYRVVSVLTVLHQDWLNGKEYKCKVSNKGLPSSIEKTISKAKGQPREPQVYTLPPSQEEMTKNQVSLTCLVKGFYPSDIAVEWESNGQPENNYKTTPPVLDSDGSFFLYSRLTVDKSRWQEGNVFSCSVMHEALHNRFTQKSLSLSPGK light: not shown	
